Data taken from paper PMC3327698, “Binding Properties and Stability of the Ras-Association Domain of Rap1-GTP Interacting Adapter Molecule (RIAM)” (PLoS ONE, 2012).

T1: GST-RIAM150-502 (RA and PH domains) (human, UniProt Q7Z5R6 150-502)
T1 construct: Modified pGEX-4T3 vector with a TEV protease site; also called RA-PH domain pair; source: E. coli BL21 GOLD, purified (Glutathione Sepharose, SEC); not shown: GST, N-terminal, kept
T1 sequence (looked up): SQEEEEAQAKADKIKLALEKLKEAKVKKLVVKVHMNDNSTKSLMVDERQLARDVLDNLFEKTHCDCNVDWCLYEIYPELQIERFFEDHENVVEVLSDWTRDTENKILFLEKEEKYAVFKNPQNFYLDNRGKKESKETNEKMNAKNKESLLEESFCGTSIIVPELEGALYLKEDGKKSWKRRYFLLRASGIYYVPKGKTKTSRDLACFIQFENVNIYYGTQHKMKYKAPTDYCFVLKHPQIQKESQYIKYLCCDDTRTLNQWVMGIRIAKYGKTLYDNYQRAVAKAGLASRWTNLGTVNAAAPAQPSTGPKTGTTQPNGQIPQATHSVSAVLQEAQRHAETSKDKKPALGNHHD

B1: Rap1B (amino acids 1-167) (domain or fragment, UniProt P61224 1-167, looked up)
chain: MREYKLVVLGSGGVGKSALTVQFVQGIFVEKYDPTIEDSYRKQVEVDAQQCMLEILDTAGTEQFTAMRDLYMKNGQGFALVYSITAQSTFNDLQDLREQILRVKDTDDVPMILVGNKCDLEDERVVGKEQGQNLARQWNNCAFLESSAKSKINVNEIFYDLVRQINR
notes: small GTPase Rap1B, amino acids 1-167 (C-terminus excluded); loaded with Gpp(NH)p or GDP before the assay; One molecule for both nucleotide states; Construct pGEX-4T3/Rap1B came from A. Wittinghofer; also called Rap1B-Gpp(NH)p; Rap1B-GTP; source: E. coli BL21 GOLD, purified (Glutathione Sepharose, nucleotide exchange, SEC)

Columns and labels:
[1] = biological target: B1; test: pull-down; quantitative: GST-RIAM on Glutathione Sepharose 4B; Rap1B-Gpp(NH)p at 0.05, 0.1, 0.3, 0.5, 0.7 and 1.0 µM; Buffer A; anti-Rap1 Western blot, densitometry, nonlinear regression (GraphPad Prism); details: both partners purified
[2] = biological target: T1, GST-RIAM150-502 (RA and PH domains); test: as above; details: both partners purified

Kd [1] | Kd [2] | Binder
330 ± 90 nM |  | GST-RIAM150-261 (RA domain) (domain or fragment, human, UniProt Q7Z5R6 150-261, looked up, Modified pGEX-4T3 vector with a TEV protease site between GST and RIAM; also called RIAM RA domain construct; GST-RIAM-RA; source: E. coli BL21 GOLD, purified (Glutathione Sepharose, SEC); not shown: GST, N-terminal, kept) SQEEEEAQAKADKIKLALEKLKEAKVKKLVVKVHMNDNSTKSLMVDERQLARDVLDNLFEKTHCDCNVDWCLYEIYPELQIERFFEDHENVVEVLSDWTRDTENKILFLEKE
 | 700 ± 400 nM | B1
